According to PMC9482650, “Quantitative fragmentomics allow affinity mapping of interactomes” (Nature Communications, 2022):

T1: RADIL, Q96JH8
T1 sequence (Q96JH8 971-1071, limits assumed, looked up): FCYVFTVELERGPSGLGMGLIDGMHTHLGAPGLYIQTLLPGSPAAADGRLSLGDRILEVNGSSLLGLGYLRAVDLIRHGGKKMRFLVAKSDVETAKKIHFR

T2: PDZRN3_1, Q9UPQ7
T2 sequence (Q9UPQ7 244-349, limits assumed, looked up): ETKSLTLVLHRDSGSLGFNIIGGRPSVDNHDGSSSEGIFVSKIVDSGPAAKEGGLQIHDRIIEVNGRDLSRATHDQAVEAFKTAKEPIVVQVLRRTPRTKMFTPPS

T3: RAPGEF6, Q8TEU7
T3 sequence (Q8TEU7 525-625, limits assumed, looked up): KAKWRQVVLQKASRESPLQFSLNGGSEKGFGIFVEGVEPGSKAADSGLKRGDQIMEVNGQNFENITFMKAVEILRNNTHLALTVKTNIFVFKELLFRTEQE

T4: RHPN1, Q8TCX5
T4 sequence (Q8TCX5 508-602, limits assumed, looked up): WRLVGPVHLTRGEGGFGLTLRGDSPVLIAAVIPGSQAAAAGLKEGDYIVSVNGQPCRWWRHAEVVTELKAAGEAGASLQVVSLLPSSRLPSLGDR

T5: FRMPD1, Q5SYB0
T5 sequence (Q5SYB0 52-145, limits assumed, looked up): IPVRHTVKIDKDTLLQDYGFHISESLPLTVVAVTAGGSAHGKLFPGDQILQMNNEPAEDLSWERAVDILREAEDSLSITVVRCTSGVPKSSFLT

T6: GRIP1_5, Q9Y3R0
T6 sequence (Q9Y3R0 568-668, limits assumed, looked up): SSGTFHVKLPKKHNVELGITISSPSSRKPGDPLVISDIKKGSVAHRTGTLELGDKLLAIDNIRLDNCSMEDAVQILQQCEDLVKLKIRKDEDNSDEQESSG

T7: GRIP1_3, Q9Y3R0
T7 sequence (Q9Y3R0 247-346, limits assumed, looked up): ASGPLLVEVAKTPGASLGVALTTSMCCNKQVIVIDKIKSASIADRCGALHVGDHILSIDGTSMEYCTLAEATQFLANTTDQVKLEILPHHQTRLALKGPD

T8: TJP3_3, O95049
T8 sequence (O95049 375-456, limits assumed, looked up): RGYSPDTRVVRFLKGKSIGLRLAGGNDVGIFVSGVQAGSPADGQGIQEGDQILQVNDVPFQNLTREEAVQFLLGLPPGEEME

T9: GRIP1_2, Q9Y3R0
T9 sequence (Q9Y3R0 145-248, limits assumed, looked up): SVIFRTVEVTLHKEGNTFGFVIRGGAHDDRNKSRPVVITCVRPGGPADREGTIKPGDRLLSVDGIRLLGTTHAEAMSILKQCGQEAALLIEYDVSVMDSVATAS

T10: LIN7A, O14910
T10 sequence (O14910 103-200, limits assumed, looked up): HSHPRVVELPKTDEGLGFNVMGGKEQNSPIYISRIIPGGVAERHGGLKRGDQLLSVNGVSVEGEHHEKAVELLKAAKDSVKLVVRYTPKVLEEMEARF


Experiments:
Experiment in all cases: holdup assay
Parameters in all cases: key: below the threshold = too weak to quantify, mostly under pKd 3.1 to 4
Settings in all cases: plain residues with an end cap or a label only (N-terminal biotin on a linker: ado-ado)
[1] = molecular target: MAST2, Q6P0Q8
[2] = molecular target: T1, RADIL, Q96JH8
[3] = molecular target: GOPC, Q9HD26
[4] = molecular target: HTRA1, Q92743
[5] = molecular target: T2, PDZRN3_1, Q9UPQ7
[6] = molecular target: SCRIB_1, Q14160
[7] = molecular target: T3, RAPGEF6, Q8TEU7
[8] = molecular target: T4, RHPN1, Q8TCX5
[9] = molecular target: PDZRN4_1, Q6ZMN7
[10] = molecular target: T5, FRMPD1, Q5SYB0
[11] = molecular target: LNX1_1, Q8TBB1
[12] = molecular target: DLG5_1, Q8TDM6
[13] = molecular target: MAGI1_1, Q96QZ7
[14] = molecular target: T6, GRIP1_5, Q9Y3R0
[15] = molecular target: T7, GRIP1_3, Q9Y3R0
[16] = molecular target: T8, TJP3_3, O95049
[17] = molecular target: DLG4_3, P78352
[18] = molecular target: NHERF4_2, Q86UT5
[19] = molecular target: DLG1_1, Q12959
[20] = molecular target: PDLIM1, O00151
[21] = molecular target: LNX1_3, Q8TBB1
[22] = molecular target: T9, GRIP1_2, Q9Y3R0
[23] = molecular target: Inadl_10, Q8NI35
[24] = molecular target: GORASP2, Q9H8Y8
[25] = molecular target: TJP2_1, Q9UDY2
[26] = molecular target: NHERF4_4, Q86UT5
[27] = molecular target: T10, LIN7A, O14910
[28] = molecular target: GORASP1, Q9BQQ3
GORASP1, Q9BQQ3, sequence (Q9BQQ3 1-208): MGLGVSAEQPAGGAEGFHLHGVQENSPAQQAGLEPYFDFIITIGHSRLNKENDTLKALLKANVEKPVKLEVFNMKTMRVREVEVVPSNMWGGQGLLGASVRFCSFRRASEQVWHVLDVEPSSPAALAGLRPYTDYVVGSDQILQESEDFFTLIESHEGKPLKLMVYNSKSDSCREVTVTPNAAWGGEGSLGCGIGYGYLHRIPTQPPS

PDLIM1, O00151, sequence (O00151 1-87): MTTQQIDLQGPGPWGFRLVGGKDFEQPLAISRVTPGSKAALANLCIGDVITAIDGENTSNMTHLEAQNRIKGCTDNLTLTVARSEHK
Inadl_10, Q8NI35, sequence (Q8NI35 1673-1763): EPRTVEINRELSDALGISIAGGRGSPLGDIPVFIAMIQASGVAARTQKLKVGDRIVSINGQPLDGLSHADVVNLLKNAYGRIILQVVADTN
DLG4_3, P78352, sequence (P78352 306-403): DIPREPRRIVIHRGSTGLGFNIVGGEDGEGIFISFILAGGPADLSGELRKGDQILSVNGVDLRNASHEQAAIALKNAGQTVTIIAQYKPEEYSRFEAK
HTRA1, Q92743, sequence (Q92743 360-477): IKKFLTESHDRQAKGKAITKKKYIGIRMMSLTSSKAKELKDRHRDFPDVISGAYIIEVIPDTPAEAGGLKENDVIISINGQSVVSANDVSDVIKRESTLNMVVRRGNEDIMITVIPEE
SCRIB_1, Q14160, sequence (Q14160 718-814): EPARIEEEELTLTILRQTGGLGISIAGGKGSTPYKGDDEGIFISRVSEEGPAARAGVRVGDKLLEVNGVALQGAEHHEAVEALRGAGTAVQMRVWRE
PDZRN4_1, Q6ZMN7, sequence (Q6ZMN7 213-318): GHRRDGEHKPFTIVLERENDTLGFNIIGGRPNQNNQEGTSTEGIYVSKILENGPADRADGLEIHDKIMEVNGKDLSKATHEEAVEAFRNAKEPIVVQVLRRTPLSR
NHERF4_2, Q86UT5, sequence (Q86UT5 220-308): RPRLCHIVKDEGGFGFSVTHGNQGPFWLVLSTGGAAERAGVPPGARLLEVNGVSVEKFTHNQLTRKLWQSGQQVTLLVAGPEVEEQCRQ
MAST2, Q6P0Q8, sequence (Q6P0Q8 1099-1202): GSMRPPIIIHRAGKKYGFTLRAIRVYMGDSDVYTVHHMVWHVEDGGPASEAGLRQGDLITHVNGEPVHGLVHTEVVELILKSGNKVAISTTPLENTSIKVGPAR
MAGI1_1, Q96QZ7, sequence (Q96QZ7 1-106): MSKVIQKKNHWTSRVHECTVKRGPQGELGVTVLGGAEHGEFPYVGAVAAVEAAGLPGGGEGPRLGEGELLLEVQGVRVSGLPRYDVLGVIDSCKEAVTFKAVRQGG
LNX1_3, Q8TBB1, sequence (Q8TBB1 500-596): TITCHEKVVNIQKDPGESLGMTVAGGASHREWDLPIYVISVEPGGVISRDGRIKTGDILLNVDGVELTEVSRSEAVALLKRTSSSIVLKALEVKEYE
TJP2_1, Q9UDY2, sequence (Q9UDY2 24-128): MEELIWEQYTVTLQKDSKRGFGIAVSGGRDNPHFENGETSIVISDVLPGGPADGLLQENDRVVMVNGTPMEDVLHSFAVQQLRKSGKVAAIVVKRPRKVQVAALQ
NHERF4_4, Q86UT5, sequence (Q86UT5 464-550): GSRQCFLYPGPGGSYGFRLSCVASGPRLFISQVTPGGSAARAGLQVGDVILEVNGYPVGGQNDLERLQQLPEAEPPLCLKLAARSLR
DLG5_1, Q8TDM6, sequence (Q8TDM6 617-713): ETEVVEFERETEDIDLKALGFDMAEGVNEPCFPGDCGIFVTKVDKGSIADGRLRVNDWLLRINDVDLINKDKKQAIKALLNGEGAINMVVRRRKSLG
LNX1_1, Q8TBB1, sequence (Q8TBB1 261-371): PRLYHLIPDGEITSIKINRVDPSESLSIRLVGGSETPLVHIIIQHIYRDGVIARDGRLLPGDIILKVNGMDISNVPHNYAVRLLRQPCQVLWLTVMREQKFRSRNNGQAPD

| Binder | pKd [1] | pKd [2] | pKd [3] | pKd [4] | pKd [5] | pKd [6] | pKd [7] | pKd [8] | pKd [9] | pKd [10] | pKd [11] | pKd [12] | pKd [13] | pKd [14] | pKd [15] | pKd [16] | pKd [17] | pKd [18] | pKd [19] | pKd [20] | other results |
| --- | --- | --- | --- | --- | --- | --- | --- | --- | --- | --- | --- | --- | --- | --- | --- | --- | --- | --- | --- | --- | --- |
| KSRPENGTVC [TMEM178B, H3BS89] | 4.21 | below the threshold | below the threshold | 4.32 | below the threshold | 3.78 | below the threshold | below the threshold | below the threshold | below the threshold | below the threshold | below the threshold | below the threshold | below the threshold | below the threshold | below the threshold | 3.5 | below the threshold | 3.71 | below the threshold | pKd [21]: below the threshold; pKd [22]: below the threshold; pKd [23]: below the threshold; pKd [24]: below the threshold; pKd [25]: below the threshold; pKd [26]: below the threshold; pKd [27]: below the threshold; pKd [28]: below the threshold |
| EAVTVESTSL [SLC22A11, Q9NSA0] | 5.9 | below the threshold | 4.18 | 3.92 | 4.24 | 4.56 | below the threshold | 4.86 | 4.43 | below the threshold | 3.5 | below the threshold | below the threshold | below the threshold | below the threshold | below the threshold | below the threshold | below the threshold | below the threshold | 3.71 | pKd [21]: below the threshold; pKd [22]: below the threshold; pKd [23]: below the threshold; pKd [24]: below the threshold; pKd [25]: below the threshold; pKd [26]: below the threshold; pKd [27]: below the threshold; pKd [28]: below the threshold |
| PEKVSNTTVV [IGSF5, Q9NSI5] | 4.99 | 4.3 | 3.61 | 4.49 | below the threshold | 3.56 | below the threshold | 3.67 | below the threshold | below the threshold | 3.67 | below the threshold | below the threshold | below the threshold | below the threshold | below the threshold | below the threshold | below the threshold | 4.25 | below the threshold | pKd [21]: below the threshold; pKd [22]: below the threshold; pKd [23]: below the threshold; pKd [24]: 4.33; pKd [25]: below the threshold; pKd [26]: below the threshold; pKd [27]: below the threshold; pKd [28]: 4.13 |
| QQGLLPHSSC [TYRO3, Q06418] | 3.83 | below the threshold | below the threshold | below the threshold | below the threshold | below the threshold | below the threshold | below the threshold | below the threshold | below the threshold | below the threshold | below the threshold | below the threshold | below the threshold | below the threshold | below the threshold | below the threshold | below the threshold | below the threshold | below the threshold | pKd [21]: below the threshold; pKd [22]: below the threshold; pKd [23]: below the threshold; pKd [24]: below the threshold; pKd [25]: below the threshold; pKd [26]: below the threshold; pKd [27]: below the threshold; pKd [28]: below the threshold |
